Assay results: patent publication US20260042834A1, “ANTI-CORTICOTROPIN-RELEASING HORMONE ANTIBODIES AND POLYCYSTIC OVARY SYNDROME” (HBM ALPHA THERAPEUTICS, INC., priority 2022, published 2026)

Molecular target: T1, human UCN1 (Homo sapiens, UniProt P55089)
T1 sequence (P55089 83-122 limits assumed): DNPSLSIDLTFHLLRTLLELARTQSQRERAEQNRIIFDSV
Test: Human UCN1 ELISA binding
Conditions: in words
Experimental: Streptavidin (Thermo, Cat: 21125) was diluted in PBS to a concentration of 2 μg/ml. 100 μl of diluted streptavidin was added per well to ELISA microplates, and the plates were incubated overnight at 4° C. Plates were blocked with ELISA blocking solution (containing 2% w/v BSA, 0.05% (v/v) Tween-20, pH 7.4 PBS buffer) at 37° C. for 1 hour, and then incubated with 0.5 μg/mL CRH (NT biotin), 0.5 μg/mL CRH (CT biotin), 1 μg/mL human UCN1 (NT biotin), or 1 μg/mL human UCN1 (CT biotin) for 1 hour at 37° C. Plates were then washed and incubated with diluted anti-CRH antibody (Ab) at 15 μg/ml (100 nM, 10 diluted, 8 points) for 1 hour at 37° C. Subsequently, plates were washed and incubated with HRP-conjugated goat anti-human IgG (H+L) antibody (Jackson, Cat: 109-035-088) at 37° C. for 1 hour. […] 100 μL of ELISA stopping solution (Solarbio, Cat #: C1058) was added to terminate the reaction, and the optical density at 450 nm (OD450 nm) was determined by an ELISA plate reader (Molecular Devices, Spectra max 384 plus).
Streptavidin (Thermo, Cat: 21125) was diluted in PBS with a concentration of 2 μg/mL. […] 100 μL of ELISA stopping solution (Solarbio, Cat #: C1058) was then added to terminate the reaction, and the OD450 nm was determined by an ELISA plate reader (Molecular Devices, Spectra max 384 plus).

B1: PR302334-26: humanized variant of Series 9 mAb PR302334; VH SEQ ID NO: 277, VL SEQ ID NO: 328 (antibody, V domains shown)
VH: EVQLVESGGGLVQPGGSLRLSCAASGFTFSTYAMSWVRQAPGKGLEWVASIRSGGTTYYPDSVKGRFTISRDNSKNSLYLQMNSLRAEDTAVYYCTRGIDWGQGTTVTVSS
VL: DIVMTQSPDSLAVSLGERATINCKASQSVNNDVAWYQQKPGQPPRLLIYYASNRYTGVPDRFSGSGSGTDFTLTISSLQAEDLAVYFCQQDYSSWTFGGGTKVEIK
modifications: PR302334-18 VH, PR302334-26 VH, PR302334-27 VH; PR302334-10 VL, PR302334-24 VL, PR302334-26 VL, PR302334-4 VL
  binding to human UCN1 peptides in ELISA: except for PR302334-26, bound to human UCN1
